T1: Abp1, P15891
T1 sequence (P15891 535-592, looked up): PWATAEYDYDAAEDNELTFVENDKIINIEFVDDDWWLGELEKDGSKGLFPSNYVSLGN

T2: Bbc1, P47068
T2 sequence (P47068 1-78, looked up): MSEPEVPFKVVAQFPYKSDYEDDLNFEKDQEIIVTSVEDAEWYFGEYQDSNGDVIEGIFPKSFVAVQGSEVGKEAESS

T3: Boi1, P38041
T3 sequence (P38041 1-86, looked up): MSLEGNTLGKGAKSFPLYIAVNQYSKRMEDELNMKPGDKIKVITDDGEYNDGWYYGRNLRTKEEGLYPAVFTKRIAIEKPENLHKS

T4: Boi2, P39969
T4 sequence (P39969 32-116, looked up): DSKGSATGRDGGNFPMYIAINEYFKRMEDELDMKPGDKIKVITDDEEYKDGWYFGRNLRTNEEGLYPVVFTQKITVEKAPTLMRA

T5: Bud14, P27637
T5 sequence (P27637 247-328, looked up): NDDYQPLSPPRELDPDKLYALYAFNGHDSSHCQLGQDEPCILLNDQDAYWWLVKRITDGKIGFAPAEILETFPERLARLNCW

T6: Bzz1-1, P38822
T6 sequence (P38822 478-572, looked up): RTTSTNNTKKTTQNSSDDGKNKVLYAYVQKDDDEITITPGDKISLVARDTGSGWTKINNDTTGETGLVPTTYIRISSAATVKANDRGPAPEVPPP

T7: Bzz1-2, P38822
T7 sequence (P38822 568-633, looked up): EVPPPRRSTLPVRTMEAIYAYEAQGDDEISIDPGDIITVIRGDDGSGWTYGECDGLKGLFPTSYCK

T8: Cdc25, P04821
T8 sequence (P04821 50-136, looked up): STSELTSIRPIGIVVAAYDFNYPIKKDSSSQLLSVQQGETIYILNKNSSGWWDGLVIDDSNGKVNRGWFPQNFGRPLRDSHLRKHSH

T9: Cyk3, Q07533
T9 sequence (Q07533 1-83, looked up): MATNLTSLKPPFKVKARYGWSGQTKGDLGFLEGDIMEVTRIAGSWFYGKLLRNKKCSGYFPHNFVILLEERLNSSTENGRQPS

T10: Fus1, P11710
T10 sequence (P11710 432-512, looked up): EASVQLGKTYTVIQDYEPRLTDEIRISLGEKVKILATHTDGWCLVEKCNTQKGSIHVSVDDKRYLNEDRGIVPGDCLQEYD

T11: Hof1, Q05080
T11 sequence (Q05080 590-669, looked up): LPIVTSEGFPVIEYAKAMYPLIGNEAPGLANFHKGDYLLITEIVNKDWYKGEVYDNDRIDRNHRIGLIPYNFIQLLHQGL

T12: Hse1, P38753
T12 sequence (P38753 208-285, looked up): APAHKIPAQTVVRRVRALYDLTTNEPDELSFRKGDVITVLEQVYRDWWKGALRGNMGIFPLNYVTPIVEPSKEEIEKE

T13: Lsb1, P53281
T13 sequence (P53281 45-122, looked up): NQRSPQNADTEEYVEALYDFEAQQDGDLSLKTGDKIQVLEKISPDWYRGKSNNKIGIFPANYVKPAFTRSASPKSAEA

T14: Lsb3, P43603
T14 sequence (P43603 385-451, looked up): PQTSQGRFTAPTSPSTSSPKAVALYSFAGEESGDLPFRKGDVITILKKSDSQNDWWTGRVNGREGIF

T15: Lsb4, P32793
T15 sequence (P32793 402-468, looked up): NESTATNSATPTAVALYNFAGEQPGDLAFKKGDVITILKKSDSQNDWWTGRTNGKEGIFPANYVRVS

T16: Myo5, Q04439
T16 sequence (Q04439 1072-1160, looked up): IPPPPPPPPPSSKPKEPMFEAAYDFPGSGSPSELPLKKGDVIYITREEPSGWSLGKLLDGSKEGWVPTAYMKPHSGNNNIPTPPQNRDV

T17: Nbp2, Q12163
T17 sequence (Q12163 103-180, looked up): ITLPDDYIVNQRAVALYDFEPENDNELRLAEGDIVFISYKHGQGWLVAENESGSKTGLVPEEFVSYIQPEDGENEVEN

T18: Pex13, P80667
T18 sequence (P80667 295-386, looked up): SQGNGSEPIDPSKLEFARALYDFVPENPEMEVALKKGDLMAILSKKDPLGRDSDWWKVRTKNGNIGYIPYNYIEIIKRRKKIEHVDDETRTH

T19: Pin3, Q06449
T19 sequence (Q06449 53-122, looked up): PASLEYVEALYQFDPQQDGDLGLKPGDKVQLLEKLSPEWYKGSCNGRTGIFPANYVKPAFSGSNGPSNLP

T20: Sla1-2, P32790
T20 sequence (P32790 60-140, looked up): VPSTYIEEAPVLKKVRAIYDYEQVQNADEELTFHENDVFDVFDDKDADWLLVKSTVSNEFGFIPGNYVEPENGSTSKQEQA

T21: Sla1-3, P32790
T21 sequence (P32790 344-424, looked up): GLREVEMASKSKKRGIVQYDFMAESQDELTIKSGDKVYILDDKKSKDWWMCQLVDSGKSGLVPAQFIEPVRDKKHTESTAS


target: T1, Abp1, P15891; assay: SPOT array; settings: median of control spots 935

Row | Binder | SPOT intensity
1 | PSRRAPLQLPQLVNK | 45
2 | NSVPIMPTLPPRPYI | 14
3 | PVLPPPRSPNRPTLS | 133
4 | LFMKGTPEFPKSGFS | 85

target: T2, Bbc1, P47068; assay: SPOT array; settings: median of control spots 796

Row | Binder | SPOT intensity
5 | PSRRAPLQLPQLVNK | 12
6 | NSVPIMPTLPPRPYI | 109
7 | PVLPPPRSPNRPTLS | 151
8 | LFMKGTPEFPKSGFS | 1

target: Bem1-1, P29366; assay: SPOT array; settings: median of control spots 4282
Sequence (P29366 55-141): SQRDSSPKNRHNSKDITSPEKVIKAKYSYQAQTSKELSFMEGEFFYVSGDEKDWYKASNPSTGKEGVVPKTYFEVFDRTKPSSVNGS

Row | Binder | SPOT intensity
9 | PSRRAPLQLPQLVNK | 2
10 | NSVPIMPTLPPRPYI | 0
11 | PVLPPPRSPNRPTLS | 1
12 | LFMKGTPEFPKSGFS | 0

target: Bem1-2, P29366; assay: SPOT array; settings: median of control spots 4347
Sequence (P29366 139-227): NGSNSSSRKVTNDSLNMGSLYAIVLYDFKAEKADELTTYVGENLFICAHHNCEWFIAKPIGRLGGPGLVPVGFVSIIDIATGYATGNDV

Row | Binder | SPOT intensity
13 | PSRRAPLQLPQLVNK | 0
14 | NSVPIMPTLPPRPYI | 2
15 | PVLPPPRSPNRPTLS | 6
16 | LFMKGTPEFPKSGFS | 0

target: T3, Boi1, P38041; assay: SPOT array; settings: median of control spots 1162

Row | Binder | SPOT intensity
17 | PSRRAPLQLPQLVNK | 0
18 | NSVPIMPTLPPRPYI | 0
19 | PVLPPPRSPNRPTLS | 849
20 | LFMKGTPEFPKSGFS | 0

target: T4, Boi2, P39969; assay: SPOT array; settings: median of control spots 1161

Row | Binder | SPOT intensity
21 | PSRRAPLQLPQLVNK | 0
22 | NSVPIMPTLPPRPYI | 0
23 | PVLPPPRSPNRPTLS | 1280
24 | LFMKGTPEFPKSGFS | 0

target: T5, Bud14, P27637; assay: SPOT array; settings: median of control spots 956

Row | Binder | SPOT intensity
25 | PSRRAPLQLPQLVNK | 0
26 | NSVPIMPTLPPRPYI | 0
27 | PVLPPPRSPNRPTLS | 0
28 | LFMKGTPEFPKSGFS | 1

target: T6, Bzz1-1, P38822; assay: SPOT array; settings: median of control spots 4446

Row | Binder | SPOT intensity
29 | PSRRAPLQLPQLVNK | 0
30 | NSVPIMPTLPPRPYI | 0
31 | PVLPPPRSPNRPTLS | 8
32 | LFMKGTPEFPKSGFS | 0

target: T7, Bzz1-2, P38822; assay: SPOT array; settings: median of control spots 4538

Row | Binder | SPOT intensity
33 | PSRRAPLQLPQLVNK | 0
34 | NSVPIMPTLPPRPYI | 0
35 | PVLPPPRSPNRPTLS | 9
36 | LFMKGTPEFPKSGFS | 0

target: T8, Cdc25, P04821; assay: SPOT array; settings: median of control spots 969

Row | Binder | SPOT intensity
37 | PSRRAPLQLPQLVNK | 0
38 | NSVPIMPTLPPRPYI | 0
39 | PVLPPPRSPNRPTLS | 0
40 | LFMKGTPEFPKSGFS | 0

target: T9, Cyk3, Q07533; assay: SPOT array; settings: median of control spots 1451

Row | Binder | SPOT intensity
41 | PSRRAPLQLPQLVNK | 0
42 | NSVPIMPTLPPRPYI | 2
43 | PVLPPPRSPNRPTLS | 0
44 | LFMKGTPEFPKSGFS | 0

target: T10, Fus1, P11710; assay: SPOT array; settings: median of control spots 1200

Row | Binder | SPOT intensity
45 | PSRRAPLQLPQLVNK | 0
46 | NSVPIMPTLPPRPYI | 0
47 | PVLPPPRSPNRPTLS | 0
48 | LFMKGTPEFPKSGFS | 0

target: GST; assay: SPOT array; settings: median of control spots 978

Row | Binder | SPOT intensity
49 | PSRRAPLQLPQLVNK | 1
50 | NSVPIMPTLPPRPYI | 1
51 | PVLPPPRSPNRPTLS | 1
52 | LFMKGTPEFPKSGFS | 0

target: T11, Hof1, Q05080; assay: SPOT array; settings: median of control spots 4086

Row | Binder | SPOT intensity
53 | PSRRAPLQLPQLVNK | 0
54 | NSVPIMPTLPPRPYI | 2750
55 | PVLPPPRSPNRPTLS | 9
56 | LFMKGTPEFPKSGFS | 0

target: T12, Hse1, P38753; assay: SPOT array; settings: median of control spots 1727

Row | Binder | SPOT intensity
57 | PSRRAPLQLPQLVNK | 0
58 | NSVPIMPTLPPRPYI | 368
59 | PVLPPPRSPNRPTLS | 0
60 | LFMKGTPEFPKSGFS | 2

target: T13, Lsb1, P53281; assay: SPOT array; settings: median of control spots 388

Row | Binder | SPOT intensity
61 | PSRRAPLQLPQLVNK | 313
62 | NSVPIMPTLPPRPYI | 176
63 | PVLPPPRSPNRPTLS | 39
64 | LFMKGTPEFPKSGFS | 67

target: T14, Lsb3, P43603; assay: SPOT array; settings: median of control spots 406

Row | Binder | SPOT intensity
65 | PSRRAPLQLPQLVNK | 0
66 | NSVPIMPTLPPRPYI | 242
67 | PVLPPPRSPNRPTLS | 102
68 | LFMKGTPEFPKSGFS | 8

target: T15, Lsb4, P32793; assay: SPOT array; settings: median of control spots 397

Row | Binder | SPOT intensity
69 | PSRRAPLQLPQLVNK | 2
70 | NSVPIMPTLPPRPYI | 513
71 | PVLPPPRSPNRPTLS | 325
72 | LFMKGTPEFPKSGFS | 50

target: Myo3, P36006; assay: SPOT array; settings: median of control spots 468

Row | Binder | SPOT intensity
73 | PSRRAPLQLPQLVNK | 0
74 | NSVPIMPTLPPRPYI | 26
75 | PVLPPPRSPNRPTLS | 22
76 | LFMKGTPEFPKSGFS | 54

target: T16, Myo5, Q04439; assay: SPOT array; settings: median of control spots 471

Row | Binder | SPOT intensity
77 | PSRRAPLQLPQLVNK | 0
78 | NSVPIMPTLPPRPYI | 25
79 | PVLPPPRSPNRPTLS | 6
80 | LFMKGTPEFPKSGFS | 48

target: T17, Nbp2, Q12163; assay: SPOT array; settings: median of control spots 357

Row | Binder | SPOT intensity
81 | PSRRAPLQLPQLVNK | 0
82 | NSVPIMPTLPPRPYI | 0
83 | PVLPPPRSPNRPTLS | 0
84 | LFMKGTPEFPKSGFS | 5

target: T18, Pex13, P80667; assay: SPOT array; settings: median of control spots 1341

Row | Binder | SPOT intensity
85 | PSRRAPLQLPQLVNK | 1
86 | NSVPIMPTLPPRPYI | 172
87 | PVLPPPRSPNRPTLS | 86
88 | LFMKGTPEFPKSGFS | 211

target: T19, Pin3, Q06449; assay: SPOT array; settings: median of control spots 2171

Row | Binder | SPOT intensity
89 | PSRRAPLQLPQLVNK | 5
90 | NSVPIMPTLPPRPYI | 28
91 | PVLPPPRSPNRPTLS | 7
92 | LFMKGTPEFPKSGFS | 40

target: Rvs167, P39743; assay: SPOT array; settings: median of control spots 2707
Sequence (P39743 419-482): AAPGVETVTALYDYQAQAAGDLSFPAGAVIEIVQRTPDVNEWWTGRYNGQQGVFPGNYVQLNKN

Row | Binder | SPOT intensity
93 | PSRRAPLQLPQLVNK | 0
94 | NSVPIMPTLPPRPYI | 157
95 | PVLPPPRSPNRPTLS | 6
96 | LFMKGTPEFPKSGFS | 1

target: Sho1, P40073; assay: SPOT array; settings: median of control spots 1148
Sequence (P40073 287-367): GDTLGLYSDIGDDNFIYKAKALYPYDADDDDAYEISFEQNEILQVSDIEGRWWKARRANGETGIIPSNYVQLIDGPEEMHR

Row | Binder | SPOT intensity
97 | PSRRAPLQLPQLVNK | 17
98 | NSVPIMPTLPPRPYI | 0
99 | PVLPPPRSPNRPTLS | 0
100 | LFMKGTPEFPKSGFS | 17

target: T20, Sla1-2, P32790; assay: SPOT array; settings: median of control spots 712

Row | Binder | SPOT intensity
101 | PSRRAPLQLPQLVNK | 0
102 | NSVPIMPTLPPRPYI | 0
103 | PVLPPPRSPNRPTLS | 442
104 | LFMKGTPEFPKSGFS | 5

target: T21, Sla1-3, P32790; assay: SPOT array; settings: median of control spots 5475

Row | Binder | SPOT intensity
105 | PSRRAPLQLPQLVNK | 0
106 | NSVPIMPTLPPRPYI | 0
107 | PVLPPPRSPNRPTLS | 6
108 | LFMKGTPEFPKSGFS | 0
